Positions count from the first letter of the chain named. Blank lines part the entries; values can stand above or below the binder they belong to. Ends that are not written are not given here. * marks the point of attachment. GlcNAc2 = N-linked chitobiose, CC(=O)N[C@@H]1[C@@H](O)[C@H](O[C@@H]2O[C@H](CO)[C@@H](O)[C@H](O)[C@H]2NC(C)=O)[C@@H](CO)O[C@H]1*
Key:
[1] = target: T1, MUC16 nonglycosylated peptide 2 (human); test: sandwich ELISA
T1 construct: Peptide used to elicit the 4H11 antibody; also called nonglycosylated MUC16 peptide 2
T1 peptide: CTLDRSSVLVDGYSPNRNE

[2] = target: T2, MUC16 unrelated peptide 18mer; test: sandwich ELISA
T2 construct: Negative control peptide without glycan
T2 peptide: GAVPRSATINVSRIATGP

[3] = target: T3, MUC16 unrelated peptide 18mer+GlcNAc2 (also: GlcNAc2 (chitobiose), site not given here); test: sandwich ELISA
T3 construct: Negative control glycopeptide; also called unrelated chitobiose-linked peptide
T3 peptide: GAVPRSATINVSRIATGP

MUC16^c114-N3 = target: T4, MUC16^c114-N3 (human, chain 1 pos 1 and pos 24: N-glycosylated Asn (cell-made glycans), written N); test: FACS, SKOV3-N30 mutc114
T4 construct: MUC16^c114 with Asn30 (Asn1806) changed to Ala, on SKOV3 cells; also called N30 mut c114; SKOV3-N30 mutc114; not shown: hrGFP of the phrGFP II-C vector, fused at the cytoplasmic carboxy-terminus
T4 chain: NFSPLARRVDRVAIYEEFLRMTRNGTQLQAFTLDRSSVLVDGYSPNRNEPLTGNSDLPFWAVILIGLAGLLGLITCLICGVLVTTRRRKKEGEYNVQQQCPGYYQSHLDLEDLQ

MUC16^c114-N2 = target: T5, MUC16^c114-N2 (human, chain 1 pos 1 and pos 30: N-glycosylated Asn (cell-made glycans), written N); test: FACS, SKOV3-N24 mutc114
T5 construct: MUC16^c114 with Asn24 (Asn1800) changed to Ala, on SKOV3 cells; also called N24 mut c114; SKOV3-N24 mutc114; not shown: hrGFP of the phrGFP II-C vector, fused at the cytoplasmic carboxy-terminus
T5 chain: T4 chain with N24A, A30N

MUC16^c114-N1 = target: T6, MUC16^c114-N1 (human, chain 1 pos 24 and pos 30: N-glycosylated Asn (cell-made glycans), written N); test: FACS, SKOV3 transfectant, goat anti-mouse IgG-PE
T6 construct: MUC16^c114 with Asn1 (Asn1777) changed to Ala, on SKOV3 cells; also called N1 mut c114; SKOV3 MUC16^c114-N1; not shown: hrGFP of the phrGFP II-C vector, fused at the cytoplasmic carboxy-terminus
T6 chain: T4 chain with N1A, A30N

MUC16^c114 = target: T7, MUC16^c114 (human, capable of N-glycosylation at Asn1, Asn24 and Asn30 ; chain 1 pos 1, 24, 30: Asn capable of N-glycosylation on the transfected cells, written N); test: FACS, SKOV3 transfectant, goat anti-mouse IgG-PE
T7 construct: The forward primer adds Met-Val before Asn1; also called MUC16^c114-GFP; SKOV3 MUC16^c114; not shown: hrGFP of the phrGFP II-C vector fused at the cytoplasmic carboxy-terminus, with its short cloning linker
T7 chain: T4 chain with A30N

[4] = target: T8, biotinylated chitobiose-conjugated 18-mer glycopeptide (human, also: biotinylated, site not given here); test: BLI (Octet QK), biotinylated glycopeptide on streptavidin sensor, antibody 10 ug/mL, 1:1 model
T8 construct: Cys plus T22-V38 of MUC16^c114; The range is derived from T22-V38 and the statement that c114 is 1777-1890; also called (GlcNAc2)2-18-mer, biotinylated; 18-mer(chitobiose)2[C-T22-V38]
T8 peptide: Ac-CTRN(GlcNAc2)GTQLQN(GlcNAc2)FTLDRSSV-NH2
Protocol: Binding affinity was determined using ForeBio Octet QK. 5 μg/mL of biotinylated chitobiose-conjugated 18-mer glycopeptide was loaded onto a streptavidin biosensor. After washing off excess antigen, mouse antibodies were tested at 10 μg/mL for association and dissociation steps, respectively. Binding parameters were calculated using 1:1 binding site model, partial fit.

binding result [1]: no binding
binding result [2]: no binding
binding result [3]: no binding
geometric mean phycoerythrin (PE) fluorescence (MUC16^c114-N3): 1700
geometric mean phycoerythrin (PE) fluorescence (MUC16^c114-N2): 1830
Mean % PE (MUC16^c114-N1): 83%
Mean % PE (MUC16^c114): 73.1%
Kd [4]: 11.1 nM
koff [4]: 0.000678 s⁻¹
B1: 18C6.D12 (antibody, V domains shown)
VH: QVTLKESGPGILQPSQTLSLTCSFSGFSLSTVGMGVGWSRQPSGKGLEWLAHIWWDDEDKYYNPALKSRLTISKDTSKNQVFLKIANVDTADTATYYCTRIGTAQATDALDYWGQGTSVTVSS
VL: DIVMTQAAPSVPVTPGESVSISCRSSKSLLHSNGNTYLYWFLQRPGQSPQRLIYYMSNLASGVPDRFSGRGSGTDFTLRISRVEAEDVGVYYCMQSLEYPLTFGGGTKLEIK
notes: Mouse monoclonal from a hybridoma; also called MUC16 Glycosylation Antibody 18C6

binding result [1]: no binding
binding result [2]: no binding
binding result [3]: no binding
geometric mean phycoerythrin (PE) fluorescence (MUC16^c114-N3): 536
geometric mean phycoerythrin (PE) fluorescence (MUC16^c114-N2): 486
Mean % PE (MUC16^c114-N1): 81.7%
Mean % PE (MUC16^c114): 69.3%
Kd [4]: 63.7 nM
koff [4]: 0.00242 s⁻¹
B2: 19C11.H6 (antibody, V domains shown)
VH: QVNLKESGPGKLQPSQTLSLTCSFSGFSLSTLGMGVGWIRQSSGKGLEWLAHIWWDDDKYYNPALKSRLTISRATSKNQVFLKIVNVGTADTATYYCARIGTAQATDALDYWGQGTSVTVSS
VL: B1 VL with V11I, R79K, E86G, S96G, Y99H
notes: Mouse monoclonal from a hybridoma; Used as 89Zr-DFO-labelled antibody in the internalization assay; also called MUC16 Glycosylation Antibody 19C11

binding result [1]: no binding
binding result [2]: no binding
binding result [3]: no binding
geometric mean phycoerythrin (PE) fluorescence (MUC16^c114-N2): 471
Kd [4]: 13.8 nM
koff [4]: 0.00104 s⁻¹
B3: 7B12.B3 (antibody, V domains shown)
VH: B1 VH with T93S
VL: B1 VL with P12S, L30R, H31K, E110K
notes: Mouse monoclonal from a hybridoma; also called MUC16 Glycosylation Antibody 7B12
